Results reported in the DeepSol protein solubility set.

Test: soluble on expression in E. coli; label from the status in PepcDB or PDB records

Q: For “MFRNVAELVELAESQAIPISEVMIRQEIEVTERSREAIIEQMENHLDVMEKAVRRGITEQVRSVSGLTGGDAVLLQDYLKKGNYLSSETVLDAVSKAVATNEVNAAMGTICATPTAGASGVVPGVLFGMEKRLSPTKEQKVRFLFTSGAFGFVVANNASISGAAGGCQAEVGSATGMAAAALVELAGGTPSQSAEAMAIALKNMLGLVCDPVAGLVEVPCVKRNAIGASIAITAADMALAGIQSRIPTDEVIDAMYKIGQAMPVAYKETAQGGLAATPKGRELEAKIFGVALDKK”, which “soluble on expression in E. coli” value is on record?
A: Its value is “not soluble”.

Q: With “MFRTQSRYLVRSILANHCVLPSTRMAVSPILNQSIKFYSSKDNATDKSQEKEQPKSILNDDMLARAGFEDVDPKEETSNSEEQATKQTGRKRKRAQTSKDLQRERYANMFYLSALIFGVAGVGYMSRDWDSEKEQEEMDGKNVENGYTPKLMYERLSKRLGSLFTFFSEPAFENLLPPPPPEQYRRPLTLVVTLDDFLIHSNWDTQHGWRTGKRPGLDYFLGYLSQYYEIVVFSSNSQIYSDKTVNKLDPYHAYISYALFREACRYKDGKLIKDLSLLNRDLGKTVMIDVDEDSAALQPENSIIVKKWEGQPDEYLISLIPFLEYLATQPVKDVRPILNSYKDKSNIVAEFAERENKLREQWRKDHGGNNGKPNAGNFIAKLLGIPVPEPKMPLDIIREHGQLQYEHFQKYLQENAHKFLEEEQKLKDEFGKVTLNKLITEGAPNAEEIAKVQQQRALEEAQKQQEGHK” as the sequence, how does the “soluble on expression in E. coli” value read?
A: Its value is “not soluble”.

Q: For “MFSAKKRDKCIGEMSEKQLDLLVIGGGITGAGIALDAQVRGIQTGLVEMNDFASGTSSRSTKLVHGGLRYLKQFEIKLVAEVGKERAIVYENAPHVTTPEWMLLPIFKDGTFGKFSTSLGLKVYDYLADVRKDERRYMLNEKQTLEKEPLLRKENLKGGGIYVEYRTDDARLTLEIMKEAVARGAVALNYMKVESFIYDQGKVVGVVAKDRLTDTTHTIYAKKVVNAAGPWVDTLREKDRSKHGKYLKLSKGVHLVVDQSRFPLRQAVYFDTESDGRMIFAIPREGKTYIGTTDTFYDKDIASPRMTVEDRDYILAAANYMFPSLNLTADDVESSWAGLRPLIHEEGKKASEISRKDEIFFSDSGLISIAGGKLTGYRKMAERTVDAVAQGLNVNEPCTTAAIRLSGGLAEGAQGFPRFLDEASRKGAKLGFDADEVRRLAKLYGSNVDHVLNYAYEGKEEAEHYGLPALLLGQLQYGVEQEMVATPLDFFVRRTGALFFNISLVHQWKEAVLRWMAEEFSWTEEEKTRFQNELETELKMAVDPLFQVEPTTVLEHHHHHH”, which “soluble on expression in E. coli” value is on record?
A: Its value is “soluble”.

Q: Which “soluble on expression in E. coli” value does the source give for “MFSGKRLKKRRITLGYSQSELADKLHINRSSYFNWENEKTKPNQSNLKQLAILLDVPETYFESEYKIVNTYLQLSLQNQEKVEKYAEELLQTQKVHEKIVPLFAVEVLSEIQLSAGPGEGLYDEFETETVYSEDEYTGFDIATWISGNSMEPVYKDGEVALIRSTGFDHDGAVYALNWNGSLYIKKLYREEDGFRMVSINPDVAERFIPFEDEIRIVGKIVGHFMPVIGGLEHHHHHH” here?
A: Its value is “soluble”.

Q: For “MFSKKKDKFMVQLEEMVFNLDRAAIEFGKMDFNTHLDLKAYSDNIKTYESHGDELMHQVISDLNQTFITPIEREDILSLCNAIDDVLDAMEETSAMFEMYSIEYTDEYMAEFVENIQKAVAEMKLAVGLLVDKKLSHMRIHSINIKEFETNCDGILRQSMKHIFNSETDPITLIKIKDIYQSMEEIADKCQAVANNFETIIMKNSLEHHHHHH”, which “soluble on expression in E. coli” value is on record?
A: Its value is “soluble”.

Q: With “MFSWLGTDDRRRKDPEVFQTVSEGLKKLYKSKLLPLEEHYRFHEFHSPALEDADFDNKPMVLLVGQYSTGKTTFIRYLLEQDFPGMRIGPEPTTDSFIAVMQGDMEGIIPGNALVVDPKKPFRKLNAFGNAFLNRFVCAQLPNPVLESISVIDTPGILSGEKQRISRGYDFAAVLEWFAERVDRIILLFDAHKLDISDEFSEVIKALKNHEDKMRVVLNKADQIETQQLMRVYGALMWSLGKIVNTPEVIRVYIGSFWSHPLLIPDNRKLFEAEEQDLFRDIQSLPRNAALRKLNDLIKRARLAKVHAYIISSLKKEMPSVFGKDNKKKELVNNLAEIYGRIEREHQISPGDFPNLKRMQDQLQAQDFSKFQPLKSKLLEVVDDMLAHDIAQLMVLVRQEESQRPIQMVKGGAFEGTLHGPFGHGYGEGAGEGIDDAEWVVARDKPMYDEIFYTLSPVDGKITGANAKKEMVRSKLPNSVLGKIWKLADIDKDGMLDDDEFALANHLIKVKLEGHELPTSCLPTSCPRPRGKLPSDGVGGHSDGQC” as the sequence, how does the “soluble on expression in E. coli” value read?
A: Its value is “not soluble”.

Q: Which “soluble on expression in E. coli” value does the source give for “MFTIEHLNFAWLQVRAGSKSAGVDGISVDLFESMATEQLQNIAYQLKEETYTANPAKGFYIPKKNGTKRLIGIHTVRDRIIQRLLLDELYFPLEDTFLDCSYAYRPGHSIQQAVQHLYGYYQYQPKWIIKADVADFFDNLSWALLLTYLEELSLEPSLLQLLEQQLKSGIIIAGQYRNFGKGVLQGGILSGALANLYLTSFDRKCLSQGINLVRYGDDFVIACNSWLEANRILDKITGWLGEVYLTLQPEKTQIFTPNDEFTFLGYRFAGGEVYAPPPPEPVRPGEWVINDSGTPYFRLKPKPRKPVSLEHHHHHH” here?
A: Its value is “not soluble”.

Q: With “MFVLSIALLSCTTLCAATTEWWGDLRAHLNPARQAPFYDVTYDEKVNVCPQGLHADAIPEYVYFGTMLATMTVDEHDQCLQKCAEKPRCKAVNFFHPFAYQEKGFCELLTEGQLDNPSLMRPFRKATYYEKIRCRELDDVEDVEEAAPIGSEITEKLPEDMAREKKLDMSKLMKKLSAKVKEFNGGAGGFRAAR” as the sequence, how does the “soluble on expression in E. coli” value read?
A: Its value is “not soluble”.

Q: With “MFVVPRRLSSFLSLVHEYRHLARRSYVMETPSIDIQNIRAKYLNSHDPYLLESKLPTTSPFELFDIWFRNVASQSDLTFEEINAVSLSTVGKDLRPSSRMVLLKAYTPTGFSFYTNYTSRKGNQLEENPNAAMLFYWPKVNRQIRVEGVVEKLPDEMAVAYWNSRPVASRIGSKSSDQSKVVPDREFLESKKVALTELSVREGAQAITKPESWGGYHLIPRYFEFWQGQSDRLHDRIVFERDVDVWLLKRLSP” as the sequence, how does the “soluble on expression in E. coli” value read?
A: Its value is “not soluble”.

Q: For “MFWKFLVSGLVGSACSAYHRGPTNVSLALDPPTLSIIMDPSKDIVPIRAVIVGGGYAGSKTAYQLDSMFAVTHIDEKNFYELTNDIIPIITNPWKEDVNPKACRRMMVLHRYYLKRSNVVTGTVIGVDAKQVYLRDGRTVPYDLLFLATGERKPFPFQTRERTISGRVQELKRFNEFLQSCKKVAVVGGGPVGTSLAHDLASTRPDLQVHLFHQRAELLPRLPGVCRRHAQEKLLSNPNLHLHLLTRVTDIDGVVLPSNGDKAASSSSPARHSCAGQLVNPPTSNAAVAESSLTLATTNAPWWRSLLNTVWPRRGVVPDQYSVHYDTLQSKVQQQPSILQQVYYGKRDEVAECGVVQARGVEEGFDYVFALTGDTPRPIQCDELEGRSRKLPNILREHETRDGHYRVSTLMQFLDHPNIFGVGRCTNLPVMRGYGSSDIETRTLFRELNSVISNPTTMFLHSRDGVQLAHMRIPRIHVRLGVDDAVGCTPWSGGMTGVSSVHEFMQDRSYLLREFQKPVFYKQQDQAKVKQRMSQWMEEEITDIVDFSHC”, which “soluble on expression in E. coli” value is on record?
A: Its value is “not soluble”.

Q: Which “soluble on expression in E. coli” value does the source give for “MGAAKNIWALANAEDAANDAEQIPYSSFVVDTSLPLPLMIPRIIELCKDLFKNWGELDDSLFSVERVSGGITNLLLKVSVKEDTNKEVSVTVRLYGPNTEYVINREREILAIKYLSAAGFGAKLLGGFGNGMVQSFINARTLEPSDMREPKIAAQIARELGKFHKVDIPGSKEPQLWVDILKFYEKASTLTFEEPDKQKLFETISFEELHKEIIELREFTGLLNAPVVFAHNDLLSGNFMLNDEEEKLYLIDFEYGSYNYRGFDIGNHFNEYAGYDCDYSLYPSKEEQYHFIKHYLQPDKPDEVSIAEVESVFVETDAYKLASHLYWAIWAIIQARMSPIEFEYLGYFFLRYNEYKKQKPLTFSLVTSHLSASL” here?
A: The value was “soluble”.

Q: Which “soluble on expression in E. coli” value does the source give for “MGASQSAEQEARPEVVRIDRNEIPEEYKTVGVSSDVVSRVNATRVAGNDGESDRLRQELAREREEKARLREDMAKLSQLQQRKTAGISAAPVSISGNDLEERKKIFDDTVERVQKQFFAYHRENVCQDNENEIVRCLQENPGRVLKCAPLTEAFEKCVGEFRQQVLKGN” here?
A: Its value is “not soluble”.

Q: For “MGAVGRGRRMSERHLRRSTHKVGDITLGAVHRLNCHCGAVQIDLDLPHGLVDPRRCDCSMCRRRGAIVASVPLQGLHVRQGEDVLRLYQFNTHAAAHYFCGVCGIYTHHRRRSNPNEYGYNVGCLEGVNPYALNITVPVEDGIHHPADRVAPQLEHHHHHH”, which “soluble on expression in E. coli” value is on record?
A: Its value is “not soluble”.
